Assay results: paper PMC11172311, “Structural and Interactional Analysis of the Flavonoid Pathway Proteins: Chalcone Synthase, Chalcone Isomerase and Chalcone Isomerase-like Protein” (International Journal of Molecular Sciences, 2024)

Key:
purified protein = substrate: O=C(/C=C/c1ccc(O)cc1)c1c(O)cc(O)cc1O; assay: purified protein; type: biochemical, Panicum virgatum
[1] = substrate: O=C(/C=C/c1ccc(O)cc1)c1c(O)cc(O)cc1O; assay: steady-state kinetics (Km); type: biochemical, Sorghum bicolor
[2] = substrate: O=C(/C=C/c1ccc(O)cc1)c1ccc(O)cc1O; assay: steady-state kinetics (Km); type: biochemical, Sorghum bicolor
[3] = substrate: CC(C)(COP(=O)(O)OP(=O)(O)OC[C@H]1O[C@@H](n2cnc3c(N)ncnc32)[C@H](O)[C@@H]1OP(=O)(O)O)[C@@H](O)C(=O)NCCC(=O)NCCSC(=O)/C=C/c1ccc(O)cc1; assay: steady-state kinetics, LC-MS/MS (Km); type: biochemical, Panicum virgatum; conditions: malonyl-CoA (co-substrate)

B1: PvCHI (chalcone isomerase) (Panicum virgatum) (protein)
chain: MAAVSEVAVDGVVFPPVARPPGSGRSHFLAGAGVRGMEIGGNFIKFTAIGVYLEEGAAVSALAKKWAGKSADELAADAAFFRDVVTGDFEKFTRVTMILPLTGEQYSGKVTENCVAYWKAVGVYTDAEGAAVDKFKEAFKPETFPPGASILFTHSPAGVLTVAFSKDSSVPESGGVAIDNKPLCEAVLESIIGEHGVSPAAKLSVAARVSELLKEASPAGGAPQAAAEPAVPVSA
notes: recombinant, N-terminal 6×-His tag
Km (purified protein): 16.04 ± 6.28 µM | kcat (purified protein): 8010 ± 1180 s⁻¹ | kcat/Km (purified protein): 5e+08 M⁻¹ s⁻¹

B2: SbCHI (chalcone isomerase, Bmr30) (Sorghum bicolor) (protein)
chain: MAVPEVVVEGVVFPPVARPPGSAGSHFLGGAGVRGIEIGGNFIKFTAIGVYLEDAAVSALAKKWAGKTADELASDAAFFRDVVTGDFEKFTRVTMLLPLTGEQYAGKVTENCVAFWKAVGLYTDAEGVAVEKFKEAFKPETFPPGASILFTHSSTGVLTVAFSKDSSVPASGGVAIENKHLCEAVLESIIGEHGVSPAAKLSLAARVSELLTKGTAGAADAPQAEPVSVTA
notes: recombinant SbCHI
Km [1]: 16.55 ± 2.08 µM | kcat [1]: 2890 ± 144 s⁻¹ | kcat/Km [1]: 1.74e+08 M⁻¹ s⁻¹ | Km [2]: 1.585 ± 0.929 µM | kcat [2]: 0.239 ± 0.0274 s⁻¹ | kcat/Km [2]: 151000 M⁻¹ s⁻¹

B3: PvCHS (chalcone synthase) (Panicum virgatum) (protein)
chain: MAGAAAAVTVEEVRKAQRASGPATVLAIGTATPANCVHQADYPDYYFRVTKSDHLTDLKEKFKRMCDKSMIRKRYMHLTEEFLAENPNMCAYMAPSLDARQDIVVVEVPKLGKAAAQKALKEWGQPRSRITHLVFCTTSGVDMPGADYQLTKLLGLRPSVNRLMMYQQGCFAGGTVLRVAKDLAENNRGARVLVVCSEITAVTFRGPSESHLDSLVGQALFGDGAAAVIVGADPDERAERPLFQLVSAAQTLLPDSEGAIDGHLREVGLTFHLLKDVPGLISKNIERALEAAFAPLGISDWNSIFWVAHPGGPAILDQVEAKVSLDKARMRATRHVLAEYGNMSSACVLFILDEMRKRSAEDGCATTGEGLDWGVLFGFGPGLTVETVVLHSVPITAGAAAA
notes: as for B1
Km [3]: 0.1303 ± 0.0319 µM | kcat [3]: 0.00695 ± 0.00077 s⁻¹ | kcat/Km [3]: 53300 M⁻¹ s⁻¹
